Results as given in patent US20140328849A1 (Genentech, published 2014).

T1: rhesus monkey CRTh2 (rhesus monkey, UniProt Q9Y5Y4 1-395 (human entry))
T1 construct: also called rhesus CRTh2
T1 chain: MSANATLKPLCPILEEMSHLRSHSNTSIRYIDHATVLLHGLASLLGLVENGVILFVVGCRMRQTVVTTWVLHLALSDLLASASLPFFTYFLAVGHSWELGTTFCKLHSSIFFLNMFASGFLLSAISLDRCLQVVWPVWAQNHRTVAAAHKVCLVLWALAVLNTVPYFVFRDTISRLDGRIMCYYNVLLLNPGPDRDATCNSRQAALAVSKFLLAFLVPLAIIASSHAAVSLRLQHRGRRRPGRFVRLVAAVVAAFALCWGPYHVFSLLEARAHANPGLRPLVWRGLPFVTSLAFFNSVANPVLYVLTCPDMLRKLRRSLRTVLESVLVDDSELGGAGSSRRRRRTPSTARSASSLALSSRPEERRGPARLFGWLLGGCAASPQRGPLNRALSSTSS

T2: cynomolgus monkey CRTh2 (cynomolgus monkey, UniProt Q9Y5Y4 1-395 (human entry))
T2 construct: also called cyno CRTh2; cynomologous CRTh2
T2 chain: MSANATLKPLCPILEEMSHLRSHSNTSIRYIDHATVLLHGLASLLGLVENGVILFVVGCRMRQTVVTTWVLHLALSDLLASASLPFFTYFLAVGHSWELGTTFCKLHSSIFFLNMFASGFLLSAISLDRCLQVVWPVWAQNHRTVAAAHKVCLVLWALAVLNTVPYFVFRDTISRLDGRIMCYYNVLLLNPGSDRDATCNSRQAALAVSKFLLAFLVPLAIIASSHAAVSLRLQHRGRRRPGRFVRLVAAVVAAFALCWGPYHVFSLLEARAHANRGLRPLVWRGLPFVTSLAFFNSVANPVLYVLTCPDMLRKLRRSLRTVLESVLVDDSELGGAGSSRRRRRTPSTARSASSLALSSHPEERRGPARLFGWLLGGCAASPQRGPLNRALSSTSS


Key:
[1] = target: T1, rhesus monkey CRTh2; assay: flow cytometry on 300.19 cells expressing amino-terminal Flag-tagged rhesus CRTh2
[2] = target: T2, cynomolgus monkey CRTh2; assay: flow cytometry on 300.19 cells expressing amino-terminal Flag-tagged cynomolgus CRTh2 [Cont.]
[3] = target: T1, rhesus monkey CRTh2; assay: flow cytometry on 293 cells expressing rhesus CRTh2

binding result [1] | binding result [2] | binding result [3] | Binder
no binding (tested: 5 ug/ml) | no binding (tested: 1 ug/ml) |  | mouse anti-human CRTh2 monoclonal antibody 8B1 (antibody, V domains shown, also called mu8B1; Mab 8B1) VH: QVQLQQSGTGLVRPGTSVRVSCKASGYAFITYLIEWIKQRPGQGLEWIGVIHPGSGNSHYNEKFKGKATLTADTSSSTAYMQLSSLTSGDSAVYFCARSGSSSFDYYAMDFWGQGTSVTVSS VL: DIQMTQSPSSLSASLGERVSLTCRASQEISGYFSWLQQKPDGTIKRLIYAASTLDSGVPKRFSGSRSGSDYSLTISSLESEDFADYYCLQYANYPYTFGGGTKLEIK
 |  | no binding (tested: 20 ug/ml) | mouse anti-human CRTh2 monoclonal antibody 19A2 (antibody, mouse IgG2a, V domains shown, also called mu19A2; Mu19A2) VH: EVKLVESGGGLVQPGGSLKLSCAASGFTFSSYSMSWVRQTPEKRLEWVAYISNGGSTTYYPGTVEGRFTISRDNAKNTLFLQMSSLRSKDTAMYYCARHRTNWDFDYWGQGTTLTVSS VL: DIQMTQSPASLSVSVGETVTITCRASENIYSNLAWYQQKQGKSPQLVVYAATQLADGVPSRFSGSGSGTQYSLKINSLQSEDFGSYYCQHFWITPWTFGGGTKLEIK
